Test results published in patent US20100104568A1 (published 2010).
One block for each molecule: values may come before it.

Experiments:
[1] = target: human RANK-L, full length, membrane-bound, expressed on HEK293T cells (human) (UniProt O14788); assay: FACS, HEK293T with human RANK-L, 400 pM Nanobody
[2] = target: cynomolgus RANK-L, full length, membrane-bound, expressed on HEK293T cells (cynomolgus monkey); assay: FACS, HEK293T with cynomolgus RANK-L, 2000 pM Nanobody
[3] = target: human RANK-L, full length, membrane-bound, expressed on HEK293T cells (human) (UniProt O14788); assay: FACS, HEK293T with human RANK-L, 3.2 pM Nanobody
[4] = target: human RANK-L, full length, membrane-bound, expressed on HEK293T cells (human) (UniProt O14788); assay: FACS, HEK293T with human RANK-L, 80 pM Nanobody
[5] = target: cynomolgus RANK-L, full length, membrane-bound, expressed on HEK293T cells (cynomolgus monkey); assay: FACS, HEK293T with cynomolgus RANK-L, 400 pM Nanobody
[6] = target: human RANK-L, full length, membrane-bound, expressed on HEK293T cells (human) (UniProt O14788); assay: FACS, HEK293T with human RANK-L, 16 pM Nanobody
[7] = target: human RANK-L, full length, membrane-bound, expressed on HEK293T cells (human) (UniProt O14788); assay: FACS, HEK293T with human RANK-L, 2000 pM Nanobody
human RANK-L [8] = target: T1, human RANK-L (human, UniProt O14788 140-317); assay: competition ELISA
T1 chain: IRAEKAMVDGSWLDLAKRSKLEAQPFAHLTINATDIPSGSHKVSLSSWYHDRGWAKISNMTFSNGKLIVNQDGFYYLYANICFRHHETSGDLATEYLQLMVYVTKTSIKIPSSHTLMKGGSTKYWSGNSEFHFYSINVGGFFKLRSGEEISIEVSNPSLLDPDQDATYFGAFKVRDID

human RANK-L [9] = target: T1, human RANK-L; assay: competition ELISA
human RANK-L [10] = target: T1, human RANK-L; assay: cell-based or functional assay

Molecule: irrelevant Nanobody (VHH)
PE mean fluorescence [1]: 90
PE mean fluorescence [2]: 149
PE mean fluorescence [3]: 84
PE mean fluorescence [4]: 82
PE mean fluorescence [5]: 140
PE mean fluorescence [6]: 77
PE mean fluorescence [7]: 87

B1: RANKL001p (VHH)
chain: EVQLVESGGGLVQPGGSLRLSCAASGFTFSSYPMGWFRQAPGKGREFVSSITGSGGSTYYADSVKGRFTISRDNAKNTLYLQMNSLRPEDTAVYYCAAYIRPDTYLSRDYRKYDYWGQGTLVTVSSGGGGSGGGSEVQLVESGGGLVQPGGSLRLSCAASGFTFSSYPMGWFRQAPGKGREFVSSITGSGGSTYYADSVKGRFTISRDNAKNTLYLQMNSLRPEDTAVYYCAAYIRPDTYLSRDYRKYDYWGQGTLVTVSSGGGC
modifications: PEGylated with maleimide PEG, average MW 40,000; residue not stated (the entry ends in GGGC)
IC50 (human RANK-L [8]): 46.5 pM

The next lines start with the values.

EC50 (human RANK-L [9]): 40.9 pM
B2: RANKL003p (VHH)
chain: EVQLVESGGGLVQPGGSLRLSCAASGRTFSRSAMGWFRQAPGKGREFVGFITGSGGTTYYADSVKGRFTISRDNAQNPVYLQMNSLRPEDTAVYYCAVYRRTYISSTYSESSEYDYWGQGTLVTVSSGGGGSGGGGSGGGGSGGGGSGGGGSGGGGSEVQLVESGGGLVQPGGSLRLSCAASGRTFSRSAMGWFRQAPGKGREFVGFITGSGGTTYYADSVKGRFTISRDNAQNPVYLQMNSLRPEDTAVYYCAVYRRTYISSTYSESSEYDYWGQGTLVTVSSGGGC
modifications: PEGylated with maleimide PEG, average MW 40,000; residue not stated (the entry ends in GGGC)

IC50, RANK-L induced NF-kappaB reporter (luciferase) in HEK293T (human RANK-L [10]): 6030 pM
B3: osteoprotegerin (receptor, UniProt O00300 22-401, looked up)
chain: ETFPPKYLHYDEETSHQLLCDKCPPGTYLKQHCTAKWKTVCAPCPDHYYTDSWHTSDECLYCSPVCKELQYVKQECNRTHNRVCECKEGRYLEIEFCLKHRSCPPGFGVVQAGTPERNTVCKRCPDGFFSNETSSKAPCRKHTNCSVFGLLLTQKGNATHDNICSGNSESTQKCGIDVTLCEEAFFRFAVPTKFTPNWLSVLVDNLPGTKVNAESVERIKRQHSSQEQTFQLLKLWKHQNKDQDIVKKIIQDIDLCENSVQRHIGHANLTFEQLRSLMESLPGKKVGAEDIEKTIKACKPSDQILKLLSLWRIKNGDQDTLKGLMHALKHSKTYHFPKTVTQSLKKTIRFLHSFTMYKLYQKLFLEMIGNQVQSVKISCL
